In the nanobody polyreactivity screen of Harvey et al. (2022):

Assay: yeast display, Sf9 membrane polyspecificity reagent, FACS + sequencing; frameworks hold sequencing errors
In short: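 Galactose induction of a Saccharomyces cerevisiae BJ5465 synthetic nanobody display library ran 36–48 hours. The cells were then stained for 1 hour at 4 °C with 10% biotinylated, detergent-solubilized Sf9 membrane reagent, pulled down on streptavidin microbeads and FACS-sorted into low and high (top ~1%) gates on expression and reagent-binding fluorescence. Labels for polyreactivity follow the gate of origin.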

| Sequence | polyreactivity (PSR sort gate) |
| --- | --- |
| QVQLVESGGGLVQAGGSLRLSCAASGSTFVDYAMGWYRQAPGKERELVAAINERGGSTYYADSVKGRFTISRDNAKNTVYLQMNSLKPEDTAVYYCAKQLWVGVKYDYWGQGTQVTVSS | low polyreactivity |
| QVQLVESGGGLVQAGGSLRLSCAASGSTFGPNGMGWYRHAPGKERELVARIDRIGGGTYYADSVKGRFTISRDNANNTVYLQMNSLKPEDTAVYYCAAYGPSPFSQGYAKGDYWGQGTQVTVSS | low polyreactivity |
| QDQLVESGGGLVQAGGSLRLICAASGFTFRWYSMGWYRQAPGKERELVADISRGGSTNYADSVKGRFTISRDHAKNSVYLQMNSLTPEDTAVFYCAATQRKYGYKSYYYWGQGTQVTVSS | high polyreactivity |
| QVQLVESGGGLVQAGGSLRLSCAASGRIFGYYAMGSYRQAPGKERELVAAITRGGSTNYADSVKGRFTISRDNAKNTVYLQMNSLKPEDTAVYYCNARRYRPRSASYDYWGQGTQVTVSS | high polyreactivity |
| QVQLVESGGGLVQAGGSLRLSCAASGRTFGKYAMGWYRQAPGKERELVARISRRGGTTYYADSVKGRFTISRDNAKNTVYLQMNSLKPEDTAVYYCAAGGTYGAVEEAHDSWGHGTQVTVSS | high polyreactivity |
| QVQLVESGGGLFQEGGSLRLSCAASGRTLRYYAMGWYRQAPGKVRELVAAISSGGTTNYADSVKGRFTISRDNAKNTVYFQMKSLKPEDTAVYYFAASYRRFRFSHYDYWGQVTQVTVSS | high polyreactivity |
| QVQLVESGGGLVQAGGSLRLSCAASGFTFYVNAMGWYRQAPGKERELVAAITYDGDSTYYADSVKGRFTISRDNAKNTVYLQMNSLKPEDTAVYYRNTVYGPDLDGTEYDYWGQGTQVTVSS | low polyreactivity |
| QVQLVESGGGLVQAGGSLRLSCAASGSIFVQYAMGWYRQAPGKERELVATISSSGGSTYYADSVKGRFTISRDNAKNTVYLQMNRLKPEDTAVYYCAADWTLDPSYGYYADDYWGQGTQVTVSS | low polyreactivity |
| QVQLVESGGGLVQAGGSLRLSCAASGRTFGYYAMGWYRQAPGKERELVAAISWRGGSTYYADSVKGRFTISRDNAKNTVYLQMNSLKPEDTAVYYCNRAYVYPQGPYPYDYWGQGTQVTVSS | high polyreactivity |
| QVQLVESGGGLVQAGGSLRLSCAASGGTFYRYAMGWYRQAPGKEMELVAAISSRGGSTYYADSVKGRFTISRDNAKNTVYLQMNSLKPEDTAVYYCAALFYLTPWQYDYWGQGTQVTVSS | high polyreactivity |
| QVQLVESGGGLVQAGGSLSLSCAAYGRTFYRNAMGWYRQAPGKERELVAAISYSGGSTYYADSVKGRFTISRDNAKNTVYLQMNILKPEDTAVYYCNVLYRVDYYRRVDYWGQGTQVSVSS | high polyreactivity |
| QVQLVESGGGLVQAGGSLRLSCAASGSIFGYNAMGWYRQAPGKERELVAVINASGASTYYADSVKGRFTISRDNAKNTVYLQMNSLKPEDTAVYYCAKDPFPFPGGDYWGQGTQVTVSS | low polyreactivity |
| QVQLVESGGGLVQAGGSLRLSCAASGNIFSSNAMGWYRQAPGKERELDAAITRSGGSTYYADSVKGRFTISRDNAKNTVYLQMNSLKPEDTAVYYCAARHYPRNSWGYDYWGQGTQVTVSS | high polyreactivity |
| QVQLVESGGGLVQAGGSLRLSCAASGSTFTTYDMGWYRQAPGKERELVAGITGSGTSTFYADSVKGRFTISRDNAKNTVYLQMKSLKPEDTAVYYCATDWYTPEEYVTGAIEEYYWGQGTLVTVSS | low polyreactivity |
| QVQLVESGGGLVQAGGSLRLSCAASGSTFYPYGMGWYRHAPGKERDLVAAISKRGGSTYYADSVKGRFTISRDNAKNTVYLQMNSLKPEDTAVYYCAAYGAGKFWAEHNYWGQGTQVTVSS | high polyreactivity |
| QVQLVESGGGLVKAGGSLRLSCASSGRIFRYYTMGWYRQAPGKERELVAAISTSDDSTNYADSVKGRFTISRDNAKNTVYLQMNSLKPEDTAVYYCAADQSRVGSYQDYDYWGQGTQVTVSS | low polyreactivity |
| QVQLVESGGGLVQAGGSLRLRWAASGFIFGYYPMGWYRPAPGKERELVAAINSSGGSTYYADSVKGRFTISRDNAKNTVYLQMNSLKPADTAVYYCAARAYQRGIYWGQGTQVTLSS | high polyreactivity |
